Results on seven molecules are retold here after US20190211098A1 (Genentech, published 2019).

To fix the notation:
T1: NPDC1 extracellular domain (1-190 aa) fused to murine IgG2a Fc (human; mouse, UniProt Q9NQX5 35-190)
T1 construct: also called NPDC1-mFc; NPDC1-mFC; not shown: Fc region of murine IgG2a, C-terminal tag
T1 sequence: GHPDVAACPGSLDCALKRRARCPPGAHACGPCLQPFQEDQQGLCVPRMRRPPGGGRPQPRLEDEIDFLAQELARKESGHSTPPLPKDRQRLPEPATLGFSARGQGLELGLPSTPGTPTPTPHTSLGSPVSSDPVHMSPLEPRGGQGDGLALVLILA

T2: Full length myc-DDK tagged PIANP, expressed on transfected 293T cells (human, UniProt Q8IYJ0 32-282)
T2 construct: Bought construct (Origene Cat. No. RC207868); also called myc-PIANP; C12orf53 (human); not shown: myc-DDK tag of the Origene construct RC207868
T2 sequence: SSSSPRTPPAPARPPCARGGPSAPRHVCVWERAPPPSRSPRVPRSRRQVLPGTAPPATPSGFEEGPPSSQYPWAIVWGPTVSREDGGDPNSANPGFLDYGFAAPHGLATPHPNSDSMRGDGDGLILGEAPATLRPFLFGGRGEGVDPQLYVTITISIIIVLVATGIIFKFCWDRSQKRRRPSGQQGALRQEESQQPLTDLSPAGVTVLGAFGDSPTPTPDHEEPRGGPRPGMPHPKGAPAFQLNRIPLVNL

B1: PILRA A140 variant (Q140A) extracellular domain fused to murine IgG2a Fc (Fc fusion)
chain: QPSGSTGSGPSYLYGVTQPKHLSASMGGSVEIPFSFYYPWELATAPDVRISWRRGHFHGQSFYSTRPPSIHKDYVNRLFLNWTEGQKSGFLRISNLQKQDQSVYFCRVELDTRSSGRQQWASIEGTKLSITQAVTTTTQRPSSMTTTWRLSSTTTTTGLRVTQGKRRSDSWHISLET
notes: also called PILRA-mFc A140; PILRA-Fc A140; not shown: Fc region of murine IgG2a, C-terminal tag
B2: Anti-mouse PILRA antibody 12C6.9 (antibody, mouse IgG2a, kappa, V domains shown)
VH: QIQLVQSGPELKKPGETVKISCKASGYTFTTYGMSWMKQAPGKGLKWMGWINTYSGVPTYADDFKGRFAFSLETSASTAYLQISNLKDEDTARYFCARRDYGSSQWYFDVWSTGTTVTVSS
VL: DIVMTQSPKFMSISVGDRVSVTCKASQNVGTKVAWYQQKPGQSPKELIYSASYRFSGVPDRFTGSGSGTDFTLTISSVQSEDLAEYFCQQYNTYPLTFGAGTKLEIKR
B3: Mouse PILRA ligand C12orf53 fused to human IgG1 Fc (Fc fusion)
chain: SSHRSPPAPARPPCVRGGPSAPRHVCVWERAPPPSRSPRVPRSRRQVVPGTAPPATPSGFEEGPPSSQYPWAIVWGPTVSREDGGDPNSVNPGFLPLDYGFAAPHGLATPHPNSDSMRDDGDGLILGETPATLRPFLFGGRGEGVDP
notes: also called C12orf53-Fc; mouse C12orf53-Fc; not shown: human IgG1 Fc
B4: Anti-mouse PILRA antibody 12H1.8 (antibody, mouse IgG2a, kappa, V domains shown)
VH: QVQLQQSGAELVGPGTSVKISCQASGYTFTNYWIGWAKQRPGHGLEWIGDIYPGGGYTNYNKKFKGKATLTADKSSSTAYMQFSSLTSEDSAIYYCSRSRGHGSNFYWYFDVWGTGTTVTVSS
VL: DIVMTQSPKFMSTSVGDRVNITCRASQDVNTAVAWFQQKPGRSPKLLIYSASYRYTGPDHFTGSGSGTDFTFTISSVQAEDLAVYYCQQHYTTPLTFGAGTKLEIKR
B5: NPDC1-His (ligand)
chain: GHPDVAACPGSLDCALKRRARCPPGAHACGPCLQPFQEDQQGLCVPRMRRPPGGGRPQPRLEDEIDFLAQELARKESGHSTPPLPKDRQRLPEPATLGFSARGQGLELGLPSTPGTPTPTPHTSLGSPVSSDPVHMSPLEPRGGQGD
notes: not shown: His tag
B6: PILRA R78 variant extracellular domain fused to murine IgG2a Fc (Fc fusion)
chain: B1 chain with G59R, A121Q
notes: also called PILRA-mFc R78; PILRA-Fc R78; not shown: Fc region of murine IgG2a, C-terminal tag
B7: PILRA G80 variant extracellular domain fused to murine IgG2a Fc (Fc fusion)
chain: B1 chain with S61G, A121Q
notes: also called PILRA-mFc G80; not shown: Fc region of murine IgG2a, C-terminal tag

Changes are numbered by the printed parent chain. Numbers in names are those of the source.

Assay [1] addresses T1, NPDC1 extracellular domain (1-190 aa) …. Description: SPR (ProteOn XPR36): PILRA-mFc A140 amine-coupled to a GLC chip, 100 nM NPDC1-mFc injected.
Description: PILRA variant ligand binding Surface Plasmon Resonance (SPR) was performed as follows.
Next, the interaction of PILRA variants and ligands in vitro using surface plasmon resonance (SPR) was investigated.
Assay [2] concerns the target T3, Biotinylated mouse PILRA ECD (mouse, UniProt Q2YFS3 32-198, biotinylated (sites not given)).
T3 construct: Captured on Neutravidin plates; also called mPILRA; recombinant PILRA ECD
Description: competitive ELISA: biotinylated mouse PILRA ECD on Neutravidin plate, antibody titrated together with a fixed amount of mouse CD99-Fc, bound ligand-Fc detected with anti-human IgG-Fc-HRP. In general terms: An ELISA detects its analyte on a solid surface through an enzyme-linked reagent.

For assay [3], the target named is T3, Biotinylated mouse PILRA ECD. Description: competitive ELISA: biotinylated mouse PILRA ECD on Neutravidin plate, antibody titrated together with a fixed amount of mouse C12orf53-Fc, bound ligand-Fc detected with anti-human IgG-Fc-HRP.
Description: The PILRA ECD-based competitive ELISA was performed as follows. […] Plates were blocked with 0.5% bovine serum albumin, 15 ppm Proclin 300 (Supelco, Bellefonte, Pa.) in PBS (80 μl/well) at room temperature for 1 h and washed. Biotinylated mouse PILRA ECD at 0.25 μg/ml (Genentech, Inc.) in 0.5% bovine serum albumin, 0.05% polysorbate 20, 15 ppm Proclin 300 in PBS, pH 7.4 (assay buffer) was added to the plates. After 1.5 hrs incubation, plates were washed. […] The mixture of the serially diluted antibody and ligand-Fc was added to the plates at 25 μl/well. After a 2 hrs incubation, plates were washed. […] After a 1 hr incubation, plates were washed and the substrate 3,3′,5,5′-tetramethyl benzidine (Moss Inc., TMBE-1000) was added. The reaction was stopped by adding 1 M phosphoric acid. The absorbance was read at 450 nm using a microplate reader (Multiskan Ascent, Thermo Scientific, Waltham, Mass.). The titration curves were plotted using KaleidaGraph (Synerg Software, Reading, Pa.).
In another assay the target is T4, Murine PILRA-His (mouse, UniProt Q2YFS3 32-198).
T4 construct: not shown: His tag
T4 sequence (Q2YFS3 32-198 limits assumed): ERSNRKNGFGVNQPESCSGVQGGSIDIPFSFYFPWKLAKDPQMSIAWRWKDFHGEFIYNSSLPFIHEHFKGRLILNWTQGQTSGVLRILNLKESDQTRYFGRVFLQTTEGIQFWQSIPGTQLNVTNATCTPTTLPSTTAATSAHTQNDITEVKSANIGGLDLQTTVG
Description: array SPR imaging, sandwich format: mAb 2 on the chip, murine PILRA-His 100 nM, then Fc-tagged ligand at 10 ug/ml; response normalised to the PILRA level.

The target in assay [4] is T5, Mouse PILRA extracellular domain fused to human CD3 zeta chain transmembrane and intracellular domains, on … (mouse; human).
T5 construct: domain: transmembrane and intracellular domains; also called cell surface PILRA
T5 sequence (P20963 other isoform, or with tags, fused parts or gaps limits assumed): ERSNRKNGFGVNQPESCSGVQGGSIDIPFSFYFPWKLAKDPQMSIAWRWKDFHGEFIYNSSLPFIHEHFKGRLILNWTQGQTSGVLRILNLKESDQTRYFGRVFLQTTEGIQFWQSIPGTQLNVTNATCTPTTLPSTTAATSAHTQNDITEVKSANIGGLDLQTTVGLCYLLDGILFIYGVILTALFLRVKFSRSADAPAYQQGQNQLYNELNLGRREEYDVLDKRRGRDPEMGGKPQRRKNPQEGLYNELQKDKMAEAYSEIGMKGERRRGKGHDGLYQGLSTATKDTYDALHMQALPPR
Description: cell-based competitive ELISA: 293-PILRA stable cells, antibody titrated together with a fixed amount of mouse CD99-Fc, bound ligand-Fc detected with anti-human IgG-Fc-HRP.
Description: After plates were centrifuged at 1200 rpm for 5 min at 4° C., the supernatant was decanted and the mixture of the serially diluted antibody and the ligand-Fc was added. Plates were incubated at 4° C. for 1 h with gentle shaking. Cells were washed with ice-cold 0.1% BSA in PBS, pH 7.4 (wash buffer) by centrifuging the plate at 1200 rpm for 5 min at 4° C. and the cells were resuspended in 200 μl wash buffer. […] Plates were incubated at 4° C. for 1 hr with gentle shaking. Cells were washed with ice-cold wash buffer 4 times. Cells were resuspended in 100 μl of the substrate 3,3′,5,5′-tetramethyl benzidine (Moss Inc., TMBE-1000) and plates were incubated at room temperature for approximately 20 min for color development. The reaction was stopped by adding 1 M phosphoric acid. The absorbance was read at 450 nm using a microplate reader (Multiskan Ascent, Thermo Scientific, Waltham, Mass.). The titration curves were plotted using KaleidaGraph (Synerg Software, Reading, Pa.).

For assay [5], the target named is B6. Description: SPR, NPDC1-His binding to PILRA variant. A general note: Surface plasmon resonance follows binding to a sensor surface in real time, without labels.
Assay [6] concerns the target B5. Description: SPR, NPDC1-His binding to PILRA variant.
In assay [7] the target is T6, HSV-1 glycoprotein B, full length, expressed on transfected 293T cells (human herpes simplex virus type-1, UniProt P06437 31-904).
T6 construct: Construct cloned from EF157316 (strain KOSc); also called HSV-1 gB; human herpesvirus 1 strain KOSc glycoprotein B (EF157316)
Description: flow cytometry: soluble PILRA-mFc variant (50 ug/ml) on HSV-1 gB-transfected 293T cells, FITC anti-mouse IgG2a; MFI as % of G78 (= 100 %).

In assay [8] the target is T2, Full length myc-DDK tagged PIANP, …. Description: flow cytometry: soluble PILRA-mFc variant (50 ug/ml) on myc-PIANP-transfected 293T cells, FITC anti-mouse IgG2a; MFI as % of G78 (= 100 %). For orientation: A flow cytometer gives signals particle by particle.
Description: The percentage of mean fluorescence intensity (MFI) of PILRA-mFC binding on ligand-transfected cells relative to the G78 variant of PILRA binding for each experiment was calculated.
Cells were washed and NPDC1 and PILRA cell surface staining was assessed by flow cytometry using anti-mIgG2a-FITC and anti-PILRA antibodies, respectively. […] Binding of the G78 variant of PILRA to NPDC1 was considered 100%.
For assay [9], the target named is B5. Description: SPR, NPDC1-His binding to PILRA variant. The source holds these as a separate data set.

T3 sequence (Q2YFS3 32-198 limits assumed): as the sequence (Q2YFS3 32-198 limits assumed) above
Description for Murine PILRA-His: Murine PILRA ligand blocking using SPRA was performed as follows. 96×96 array-based SPR imaging system (Carterra USA) was used to epitope bin a panel of monoclonal antibodies. Purified antibodies were diluted at 10 μg/ml in 10 mM sodium acetate buffer pH 4.5. Using amine coupling, antibodies were directly immobilized onto a SPR sensorprism CMD 200M chip (XanTec Bioanalytics, Germany) using a Continuous Flow Microspotter (Carterra, USA) to create an array of 96 antibodies. For binning analysis, the IBIS MX96 SPRi (Carterra USA) was used to evaluate binding to the immobilized antibodies. Murine PILRA-His (Genentech Inc.) was first injected for 4 min at 100 nM and was followed by a second 4 min injection of purified antibody or ligand at 10 μg/ml. The surface was regenerated between cycles with 10 mM Glycine pH 1.7. The experiment was performed at 25° C. in a running buffer of 10 mM HEPES, pH 7.4, 150 mM NaCl, 3 mM EDTA, and 0.005% Tween 20. The binding data was processed using Epitope Binning software tool (Carterra, Inc).
Anti-murine PILRA antibodies directly immobilized via amine coupling were binned against each other and murine PILRA ligands to identify ligand blocking clones of interest.

Turning to B1, in assay [1], the binding result is reported as “binds”.

On to B2, for which the “IC50 (read off the curve)” value is roughly 4 nM in [2] and roughly 3 nM in assay [3].

For B3, in the assay with Murine PILRA-His, the binding result was “binds”.

On to B4, for which the “IC50 (read off the curve)” value in assay [4] is roughly 8 nM; in assay [2], roughly 4 nM; in assay [3], roughly 4 nM.

By Kd is commonly meant a measure of binding affinity in units of concentration. A lower Kd goes with tighter binding. Broadly, the kon is the second-order rate constant of association. A low value points to slow association. Turning to B5, in assay [5], the equilibrium dissociation constant (Kd) was determined as 76.5 nM and the kon came to 6800 M⁻¹ s⁻¹.

Regarding B6, the “fold lower affinity than the G78 variant” value with NPDC1-His [6] was roughly 4.5 fold. In the assay with NPDC1-His [6], the “fold lower kon than the G78 variant” value is roughly 3 fold. Also, the binding result in [7] and in assay [8] was “binds” each time.

For B7, the affinity with NPDC1-His [9], expressed as Kd, was 30 nM. Besides, the kon with NPDC1-His [9] was 17000 M⁻¹ s⁻¹. Further, the binding result in assay [7] and in assay [8] was “binds” each time.
